Measurements taken from paper PMC9080902 (Journal of thrombosis and haemostasis : JTH, 2021).

B1: GST-fused PH domain of kindlin-2 (374–499) (domain or fragment, UniProt Q96AC1 374-499, looked up)
chain: ELADYIKVFKPKKLTLKGYKQYWCTFKDTSISCYKSKEESSGTPAHQMNLRGCEVTPDVNISGQKFNIKLLIPVAEGMNEIWLRCDNEKQYAHWMAACRLASKGKTMADSSYNLEVQNILSFLKMQ
B2: GST-fused PH domain of kindlin-1 (374–496) (domain or fragment, UniProt Q9BQL6 374-496, looked up)
chain: DNLKLFRPKKLLPKAFKQYWFIFKDTSIAYFKNKELEQGEPLEKLNLRGCEVVPDVNVAGRKFGIKLLIPVADGMNEMYLRCDHENQYAQWMAACMLASKGKTMADSSYQPEVLNILSFLRMK
B3: GST-fused PH domain of kindlin-3 (351–476) (domain or fragment, UniProt Q86UX7-2 351-476, looked up)
chain: ELKDHLRIFRPRKLTLKGYRQHWVVFKETTLSYYKSQDEAPGDPIQQLNLKGCEVVPDVNVSGQKFCIKLLVPSPEGMSEIYLRCQDEQQYARWMAGCRLASKGRTMADSSYTSEVQAILAFLSLQ

target: flag-tagged paxillin (UniProt P49023 1-591); experiment: BLI
Sequence (P49023 whole entry): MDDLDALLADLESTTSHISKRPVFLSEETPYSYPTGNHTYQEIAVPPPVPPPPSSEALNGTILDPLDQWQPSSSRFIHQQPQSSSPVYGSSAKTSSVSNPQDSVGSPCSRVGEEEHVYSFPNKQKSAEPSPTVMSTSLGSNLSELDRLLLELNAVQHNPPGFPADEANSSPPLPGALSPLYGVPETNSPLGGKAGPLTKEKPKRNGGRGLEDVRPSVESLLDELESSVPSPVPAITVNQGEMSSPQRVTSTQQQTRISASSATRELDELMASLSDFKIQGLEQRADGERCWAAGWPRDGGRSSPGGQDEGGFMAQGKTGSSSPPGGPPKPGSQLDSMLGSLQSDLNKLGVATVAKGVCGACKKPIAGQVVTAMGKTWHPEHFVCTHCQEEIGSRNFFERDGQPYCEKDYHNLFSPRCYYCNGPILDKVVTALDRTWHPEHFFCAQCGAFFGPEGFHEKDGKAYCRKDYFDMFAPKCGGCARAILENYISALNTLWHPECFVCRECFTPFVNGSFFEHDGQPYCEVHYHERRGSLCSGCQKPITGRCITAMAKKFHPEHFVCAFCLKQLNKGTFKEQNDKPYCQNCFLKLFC

Kd	Binder
23.5 µM	B1
14.2 µM	B2
7.6 µM	B3
